Test [1] addresses T1, GST-pre-S1 (1st to 56th amino acids) protein (hepatitis B virus, UniProt P08515 1-218 = GST). Description: affinity determination (competitive ELISA / Octet Red; FIGS. 2 to 5 cited). On the technique in general: An ELISA detects its analyte on a solid surface through an enzyme-linked reagent.
Test [2] addresses T2, L1CAM on L1CAM-overexpressing human cholangiocarcinoma cells (SCK-L1) (UniProt P32004 20-1257).
T2 construct: whole, on cells; also called L1 cell adhesion molecule
Description: flow cytometry.

The target in test [3] is T1, GST-pre-S1 (1st to 56th amino acids) …. Description: BLI (Octet Red), antibody captured on anti-human Fc tip, GST-pre-S1 in solution. In general terms: BLI is a label-free optical method that tracks binding on a fibre tip over time.
Description: Thereafter, the biosensor tip was saturated with 2 μg/mL of the antibody for 10 minutes. […] The binding and separation rates were measured for 15 minutes and 30 minutes, respectively. In all the measurements, a baseline drift was corrected by subtracting a control sensor exposed to only a running buffer. The operating temperature was maintained at 30° C. The data was analyzed using a 1:1 interaction model (fitting global, Rmax unlinked by sensor) equipped with ForteBio data analysis software 7.0.
Test [4] shares this target. Description: BLI (Octet Red).

T1 sequence (P08515 whole entry): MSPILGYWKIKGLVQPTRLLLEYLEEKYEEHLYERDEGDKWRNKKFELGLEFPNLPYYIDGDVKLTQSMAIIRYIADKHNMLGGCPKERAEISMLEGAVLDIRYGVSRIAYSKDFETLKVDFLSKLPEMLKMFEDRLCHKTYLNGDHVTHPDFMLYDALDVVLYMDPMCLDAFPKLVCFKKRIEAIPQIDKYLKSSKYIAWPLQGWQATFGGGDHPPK
T2 sequence (P32004 20-1257 limits assumed): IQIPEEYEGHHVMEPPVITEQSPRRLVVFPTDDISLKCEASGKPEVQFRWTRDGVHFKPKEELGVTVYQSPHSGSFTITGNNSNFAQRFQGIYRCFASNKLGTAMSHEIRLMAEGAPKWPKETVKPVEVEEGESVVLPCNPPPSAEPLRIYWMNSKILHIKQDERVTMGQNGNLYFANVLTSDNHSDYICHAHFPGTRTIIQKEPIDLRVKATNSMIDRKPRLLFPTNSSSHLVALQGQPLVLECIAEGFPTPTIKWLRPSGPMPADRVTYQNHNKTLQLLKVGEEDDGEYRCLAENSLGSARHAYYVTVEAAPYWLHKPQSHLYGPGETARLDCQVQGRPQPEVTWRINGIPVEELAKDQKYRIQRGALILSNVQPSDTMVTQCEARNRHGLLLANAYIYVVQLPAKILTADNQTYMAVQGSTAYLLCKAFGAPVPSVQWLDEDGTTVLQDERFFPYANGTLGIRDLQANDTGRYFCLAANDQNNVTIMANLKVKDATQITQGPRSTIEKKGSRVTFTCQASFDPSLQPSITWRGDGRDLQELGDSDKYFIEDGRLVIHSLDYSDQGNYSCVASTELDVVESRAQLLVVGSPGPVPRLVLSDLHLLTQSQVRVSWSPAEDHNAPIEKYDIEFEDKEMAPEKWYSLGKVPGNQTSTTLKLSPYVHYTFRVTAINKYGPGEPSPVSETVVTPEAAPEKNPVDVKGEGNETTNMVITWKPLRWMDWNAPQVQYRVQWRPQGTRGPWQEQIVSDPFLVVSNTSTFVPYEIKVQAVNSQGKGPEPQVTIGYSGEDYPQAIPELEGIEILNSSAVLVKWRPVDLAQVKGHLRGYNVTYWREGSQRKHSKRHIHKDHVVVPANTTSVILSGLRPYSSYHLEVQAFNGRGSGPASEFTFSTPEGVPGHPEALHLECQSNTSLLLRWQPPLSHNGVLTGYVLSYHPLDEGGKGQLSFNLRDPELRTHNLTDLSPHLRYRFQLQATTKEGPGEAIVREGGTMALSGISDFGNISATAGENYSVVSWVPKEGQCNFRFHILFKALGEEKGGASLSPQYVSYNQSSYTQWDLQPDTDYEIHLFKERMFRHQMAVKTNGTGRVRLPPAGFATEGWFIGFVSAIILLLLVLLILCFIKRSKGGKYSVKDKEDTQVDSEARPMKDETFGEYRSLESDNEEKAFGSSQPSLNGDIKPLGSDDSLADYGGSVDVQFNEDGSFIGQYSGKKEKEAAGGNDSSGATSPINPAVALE

B1: humanized antibody HzKR127-3.2 (antibody, V domains shown)
VH: QVQLQQSGAEVKKPGASVKVSCKASGYTFTSSWMNWVRQAPGQGLEWMGRIYPGDGDTSYAQKFQGRVTMTADKSTSTVYMELSSLRSEDTAVYYCAREYAEAYWGQGTLVTVSS
VL: DIVMTQTPLSLSVTPGQPASISCKSSQSLLYSNGKTYLNWLLQKPGQPPQRLIYLVSNRDSGVPDRFSGSGSGTDFTLKISRVEAEDVGVYYCVQGTHFPQTFGGGTKVEIKR
As a reminder, the Kd is the equilibrium constant for the complex coming apart. A word on the koff: it is a measure of how fast the partners let go of each other. Read a high koff as fast dissociation. What is called kon is the rate constant with which the complex forms. Turning to B1, the “fold higher affinity than KR127” value in test [1] was found to be 2.5 fold. In addition, the binding result in test [2] is “no binding (tested: 1 µg of the antibody in 100 µL)”. Also, in test [3], the Kd stood at 0.493 nM, the koff turned out to be 5.32e-05 s⁻¹ and the kon amounted to 108000 M⁻¹ s⁻¹. In addition, the “fold higher affinity than HzKR127-3.1” value in test [4] came out at 1.6 fold.

These data come from patent US20170260258A1 (GENEONE LIFE SCIENCE, published 2017).
